B1: cLuc-linker-FLAG-Mdm4-111 (other)
chain: MSGYVNNPEATNALIDKDGWLHSGDIAYWDEDEHFFIVDRLKSLIKYKGYQVAPAELESILLQHPNIFDAGVAGLPDDDAGELPAAVVVLEHGKTMTEKEIVDYVASQVTTAKKLRGGVVFVDEVPKGLTGKLDARKIREILIKAKKGGKIAVGGGSGGGQISYASRGDYKDDDDKSGTSFSTSAQCSTSDSACRISPGQINQVRPKLPLLKILHAAGAQGEMFTVKEVMHYLGQYIMVKQLYDQQEQHMVYCGGDLLGELLGRQSFSVKDPSPLYDMLRKNLVTLAT
notes: range 2-111; Expressed from pLi354 with nLuc-p53; also called cLuc-Mdm4
B2: nLuc-linker-HA (other)
chain: MEDAKNIKKGPAPFYPLEDGTAGEQLHKAMKRYALVPGTIAFTDAHIEVDITYAEYFEMSVRLAEAMKRYGLNTNHRIVVCSENSLQFFMPVLGALFIGVAVAPANDIYNERELLNSMGISQPTVVFVSKKGLQKILNVQKKLPIIQKIIIMDSKTDYQGFQSMYTFVTSHLPPGFNEYDFVPESFDRDKTIALIMNSSGSTGLPKGVALPHRTACVRFSHARDPIFGNQIIPDTAILSVVPFHHGFGMFTTLGYLICGFRVVLMYRFEEELFLRSLQDYKIQSALLVPTLFSFFAKSTLIDKYDLSNLHEIASGGAPLSKEVGEAVAKRFHLPGIRQGYGLTETTSAILITPEGDDKPGAVGKVVPFFEAKVVDLDTGKTLGVNQRGELCVRGPMIMSGYVNNPEATNALIDKDG
notes: Expressed from pLi635, no fusion partner; also called nLuc-HA; nLuc alone; not shown: linker-HA
B3: cLuc-linker-FLAG-FANCL_WT (other)
chain: MSGYVNNPEATNALIDKDGWLHSGDIAYWDEDEHFFIVDRLKSLIKYKGYQVAPAELESILLQHPNIFDAGVAGLPDDDAGELPAAVVVLEHGKTMTEKEIVDYVASQVTTAKKLRGGVVFVDEVPKGLTGKLDARKIREILIKAKKGGKIAVGGGSGGGQISYASRGDYKDDDDKSGAVTEASLLRQCPLLLPQNRSKTVYEGFISAQGRDFHLRIVLPEDLQLKNARLLCSWQLRTILSGYHRIVQQRMQHSPDLMSFMMELKMLLEVALKNRQELYALPPPPQFYSSLIEEIGTLGWDKLVYADTCFSTIKLKAEDASGREHLITLKLKAKYPAESPDYFVDFPVPFCASWTPQSSLISIYSQFLAAIESLKAFWDVMDEIDEKTWVLEPEKPPRSATARRIALGNNVSINIEVDPRHPTMLPECFFLGADHVVKPLGIKLSRNIHLWDPENSVLQNLKDVLEIDFPARAILEKSDFTMDCGICYAYQLDGTIPDQVCDNSQCGQPFHQICLYEWLRGLLTSRQSFNIIFGECPYCSKPITLKMSGRKH
notes: mature; Expressed from pLi505; also called cLuc-FANCL
B4: cLuc-linker-FLAG-FANCL_C307A (other)
chain: B3 chain with C484A
notes: mature; Expressed from pLi506
B5: cLuc-linker-HA-Mdm2_RING (other)
chain: MSGYVNNPEATNALIDKDGWLHSGDIAYWDEDEHFFIVDRLKSLIKYKGYQVAPAELESILLQHPNIFDAGVAGLPDDDAGELPAAVVVLEHGKTMTEKEIVDYVASQVTTAKKLRGGVVFVDEVPKGLTGKLDARKIREILIKAKKGGKIAVGGGSGGGQISYASRGYPYDVPDYAGSSSLPLNAIEPCVICQGRPKNGCIVHGKTGHLMACFTCAKKLKKRNKPCPVCRQPIQMIVLTYFP
notes: range 428-491; Expressed from pLi283; also called cLuc-Mdm2_RING; Mdm2 RING domain
B6: cLuc-linker-HA-Mdm2_RING-C464A (other)
chain: B5 chain with C216A
notes: range 428-491; Expressed from pLi285; also called Mdm2_C464A
B7: nLuc-linker-HA-Mdm4_RING (other)
chain: MEDAKNIKKGPAPFYPLEDGTAGEQLHKAMKRYALVPGTIAFTDAHIEVDITYAEYFEMSVRLAEAMKRYGLNTNHRIVVCSENSLQFFMPVLGALFIGVAVAPANDIYNERELLNSMGISQPTVVFVSKKGLQKILNVQKKLPIIQKIIIMDSKTDYQGFQSMYTFVTSHLPPGFNEYDFVPESFDRDKTIALIMNSSGSTGLPKGVALPHRTACVRFSHARDPIFGNQIIPDTAILSVVPFHHGFGMFTTLGYLICGFRVVLMYRFEEELFLRSLQDYKIQSALLVPTLFSFFAKSTLIDKYDLSNLHEIASGGAPLSKEVGEAVAKRFHLPGIRQGYGLTETTSAILITPEGDDKPGAVGKVVPFFEAKVVDLDTGKTLGVNQRGELCVRGPMIMSGYVNNPEATNALIDKDGGGGSGGGQISYASRGYPYDVPDYAGSMEDCQNLLKPCSLCEKRPRDGNIIHGRTGHLVTCFHCARRLKKAGASCPICKKEIQLVIKVFIA
notes: range 427-490; Expressed from pLi283 and pLi285; also called nLuc-Mdm4_RING; Mdm4 RING domain

Assay [1] has as its target TAT-PMI. The assay is described as follows: lysate BiLC (FIG. 13B); disruption of nLuc-p53 / cLuc-Mdm4.
Assay [2] addresses T1, cLuc-linker-HA (Photinus pyralis (Common eastern …, UniProt P08659 398-547 = luciferase)).
T1 construct: Expressed from pLi635, no fusion partner; also called cLuc-HA; cLuc alone; not shown: linker-HA
The assay is described as follows: quantitative ReBiL assay in U2OS cells (FIG. 17D).

The target in assay [3] is T2, nLuc-linker-HA-Ube2t (UniProt Q9NPD8 1-197, limits assumed).
T2 construct: Expressed from pLi505 and pLi506; also called nLuc-Ube2t; nLuc-Linker1-HA-Ube2t; not shown: linker-HA
T2 sequence (Q9NPD8 whole entry): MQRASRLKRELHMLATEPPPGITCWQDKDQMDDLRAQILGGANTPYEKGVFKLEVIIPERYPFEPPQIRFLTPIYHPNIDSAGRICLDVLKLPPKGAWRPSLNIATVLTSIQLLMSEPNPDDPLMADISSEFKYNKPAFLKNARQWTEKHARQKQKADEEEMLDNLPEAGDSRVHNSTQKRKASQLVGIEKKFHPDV
The assay is described as follows: ReBiL BiLC in living U2OS cells at 35° C.

The target of assay [4] is T2, nLuc-linker-HA-Ube2t. Kind of assay: ReBiL BiLC in living U2OS cells at 35° C (FIG. 23C).
Assay [5] addresses B7. The assay is described as follows: BiLC in U2OS cell lysates, three lysis buffers.
In assay [6] the target is B7. Kind of assay: BiLC in cells and in cell lysate (FIGS. 16 and 12).
Assay [7] deals with B5. The assay is described as follows: BiLC in cell lysate with PPI lysis buffer PLB; reference is the Mdm4_RING / Mdm2_RING_C464A pair.

Substitutions are numbered along the chain they refer to.

Regarding B1, the binding result in assay [1] is listed as “binds”.
Regarding B2, the binding result in assay [2] was “no binding”.
B3: the binding result in assay [3] is recorded as “binds”.
B4: the binding result in assay [4] was “no binding”.
Turning to B5, the binding result in assay [5] is “binds”.
Turning to B6, the binding result in assay [6] is recorded as “no binding”.
With B7, the “BiLC signal (wild type) to noise (mutant) ratio” value in assay [7] is above 1000 fold.

Values taken from US20150010932A1 (SALK INSTITUTE FOR BIOLOGICAL STUDIES, published 2015).
